According to article doi:10.1101/2020.10.25.354415 (bioRxiv, 2020):
One block for each binder: values may come before it.

B2: αT-catenin head region (aa1-659) (domain or fragment, M. musculus, UniProt Q65CL1 1-659, looked up)
chain: MSAETPITLNMDTQDLQIQTFTVEKLLEPLIIQVTTLVNCPQNPSNRKKGRSKRARVLLASVEEATWNLLDKGEMIAKEATVLKEELAAALQEVRKESKALKVSAERFTDDPCYLPKREAVVQAARALLAAVTRLLVLADMIDVMCLLQHVSSFQRTFESLKNVSNKSDLQRTYQKLGKELESLDYLAFKRQQDLKSPSQRDEIAGARATLKENSPLLHSICSACLEHSDVASLKASKDTVCEEIQNALDVISNASQGIQNAPAPPEPQAATLGSAFDELENLIVLNPLTVTEEDVRPSLEKRLEAIISGAALLADSSCTRDLHRERIIAECNAIRQALQDLLTEYMSNTGKTERSNTLNTAIVNMSKKTRDLRRQLRKAIIDHISDSFLDTTVPLLVLIEAAKNGRVKEIKDYAAIFHEHTGRLVEVANLACSMSTNEDGIKIVRIAANHLETLCPQIINAALALASRPKSQVVKNTMEMYKRTWEHYIHVLTEAVDDITSIDDFLAVSESHILEDVNKCIIALRDQDADNLDRAAGAIRGRAARVAHIVAGEMDSYEPGAYTEGVMRNVNFLTSTVIPEFVTQVNVALDALSKNSLTALDDNQFVDISKKIYDTIHDIRCSVMMIRTPEELEDVSDLEDDHEVRSHTSIQTEGKTDR

Columns and labels:
[1] = biological target: T1, 2I27-αT-catenin M1-M3(aa259-667)-2I27 (UniProt Q65CL1); test: ITC
T1 sequence (Q9UI47 whole entry, species assumed, looked up): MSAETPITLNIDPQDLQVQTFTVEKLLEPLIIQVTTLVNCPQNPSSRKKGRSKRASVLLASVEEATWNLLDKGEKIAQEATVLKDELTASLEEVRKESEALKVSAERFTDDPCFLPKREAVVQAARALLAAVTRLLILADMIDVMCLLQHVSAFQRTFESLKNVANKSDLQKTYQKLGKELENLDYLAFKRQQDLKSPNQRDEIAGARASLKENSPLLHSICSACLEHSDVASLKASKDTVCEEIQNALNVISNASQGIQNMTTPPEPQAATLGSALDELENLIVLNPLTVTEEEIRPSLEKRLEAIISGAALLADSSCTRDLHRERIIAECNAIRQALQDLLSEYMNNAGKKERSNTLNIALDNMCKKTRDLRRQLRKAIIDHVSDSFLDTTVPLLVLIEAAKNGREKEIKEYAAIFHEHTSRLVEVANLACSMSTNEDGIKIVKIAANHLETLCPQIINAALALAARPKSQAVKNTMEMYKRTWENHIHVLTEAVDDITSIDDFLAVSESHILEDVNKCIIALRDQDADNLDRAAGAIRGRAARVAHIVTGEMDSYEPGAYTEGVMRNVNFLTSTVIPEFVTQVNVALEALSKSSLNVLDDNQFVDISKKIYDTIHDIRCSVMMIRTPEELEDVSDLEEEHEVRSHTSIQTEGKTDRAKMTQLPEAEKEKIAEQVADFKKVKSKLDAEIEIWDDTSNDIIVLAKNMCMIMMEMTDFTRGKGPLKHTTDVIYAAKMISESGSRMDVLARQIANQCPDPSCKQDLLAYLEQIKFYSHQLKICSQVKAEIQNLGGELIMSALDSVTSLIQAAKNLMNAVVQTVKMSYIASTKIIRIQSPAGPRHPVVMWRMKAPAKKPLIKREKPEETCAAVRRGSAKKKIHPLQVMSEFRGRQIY

[2] = biological target: T2, αT-catenin N2-M3 (aa147-626) (M. musculus, UniProt Q65CL1 147-626); test: ITC
T2 sequence (looked up): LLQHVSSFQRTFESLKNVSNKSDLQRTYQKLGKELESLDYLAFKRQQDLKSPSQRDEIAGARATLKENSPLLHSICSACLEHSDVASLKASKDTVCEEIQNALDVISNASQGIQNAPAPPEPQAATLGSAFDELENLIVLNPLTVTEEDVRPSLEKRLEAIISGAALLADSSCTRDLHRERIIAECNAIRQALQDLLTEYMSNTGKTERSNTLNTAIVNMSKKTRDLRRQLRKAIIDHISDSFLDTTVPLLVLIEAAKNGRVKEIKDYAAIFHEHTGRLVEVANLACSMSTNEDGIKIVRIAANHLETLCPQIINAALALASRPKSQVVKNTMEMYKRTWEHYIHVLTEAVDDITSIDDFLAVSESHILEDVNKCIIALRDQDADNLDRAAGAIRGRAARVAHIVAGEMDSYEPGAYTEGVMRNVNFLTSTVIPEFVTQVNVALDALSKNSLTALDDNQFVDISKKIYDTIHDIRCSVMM

[3] = biological target: B2; test: ITC
[4] = biological target: T3, αT-catenin head•β-catenin complex (M. musculus, UniProt Q65CL1 1-659; Q02248 1-781); test: ITC
T3 sequence (looked up) 1: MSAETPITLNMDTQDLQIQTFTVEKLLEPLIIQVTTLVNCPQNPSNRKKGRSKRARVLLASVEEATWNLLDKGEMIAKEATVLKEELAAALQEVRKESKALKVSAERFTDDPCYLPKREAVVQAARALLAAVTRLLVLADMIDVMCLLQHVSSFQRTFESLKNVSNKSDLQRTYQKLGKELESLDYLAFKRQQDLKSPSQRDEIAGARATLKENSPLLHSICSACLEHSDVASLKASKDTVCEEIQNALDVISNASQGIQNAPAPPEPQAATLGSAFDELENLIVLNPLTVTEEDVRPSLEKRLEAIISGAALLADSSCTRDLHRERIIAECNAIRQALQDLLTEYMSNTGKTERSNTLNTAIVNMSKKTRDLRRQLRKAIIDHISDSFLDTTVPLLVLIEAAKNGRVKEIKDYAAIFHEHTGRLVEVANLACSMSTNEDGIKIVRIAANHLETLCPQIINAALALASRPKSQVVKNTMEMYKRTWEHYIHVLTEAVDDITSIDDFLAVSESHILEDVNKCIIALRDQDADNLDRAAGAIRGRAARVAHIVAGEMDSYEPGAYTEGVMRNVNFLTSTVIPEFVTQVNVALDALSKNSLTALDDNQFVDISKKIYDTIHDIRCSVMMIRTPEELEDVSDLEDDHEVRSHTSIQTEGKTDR
T3 sequence (looked up) 2: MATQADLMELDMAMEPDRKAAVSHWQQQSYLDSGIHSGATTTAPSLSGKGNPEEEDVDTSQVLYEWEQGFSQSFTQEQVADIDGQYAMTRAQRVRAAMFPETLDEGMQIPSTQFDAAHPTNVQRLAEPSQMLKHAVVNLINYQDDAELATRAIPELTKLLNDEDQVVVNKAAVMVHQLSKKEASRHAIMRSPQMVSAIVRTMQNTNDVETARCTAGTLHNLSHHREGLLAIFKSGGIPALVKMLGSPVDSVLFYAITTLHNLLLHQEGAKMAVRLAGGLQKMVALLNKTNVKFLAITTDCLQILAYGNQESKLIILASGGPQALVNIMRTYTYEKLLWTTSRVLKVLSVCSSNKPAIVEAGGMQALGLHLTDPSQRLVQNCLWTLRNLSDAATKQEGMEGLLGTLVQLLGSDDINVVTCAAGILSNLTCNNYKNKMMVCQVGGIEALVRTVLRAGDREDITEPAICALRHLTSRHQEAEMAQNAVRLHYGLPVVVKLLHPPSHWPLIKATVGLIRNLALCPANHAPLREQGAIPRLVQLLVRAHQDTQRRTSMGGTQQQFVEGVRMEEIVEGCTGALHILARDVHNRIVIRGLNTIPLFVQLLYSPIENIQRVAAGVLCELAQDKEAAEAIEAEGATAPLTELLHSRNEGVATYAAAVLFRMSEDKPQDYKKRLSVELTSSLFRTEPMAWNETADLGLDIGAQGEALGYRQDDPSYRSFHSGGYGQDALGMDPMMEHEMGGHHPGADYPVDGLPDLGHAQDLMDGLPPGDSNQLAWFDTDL

[5] = biological target: T4, αT-catenin M1-M3 (aa260-626) (M. musculus, UniProt Q65CL1 260-626); test: ITC
T4 sequence (looked up): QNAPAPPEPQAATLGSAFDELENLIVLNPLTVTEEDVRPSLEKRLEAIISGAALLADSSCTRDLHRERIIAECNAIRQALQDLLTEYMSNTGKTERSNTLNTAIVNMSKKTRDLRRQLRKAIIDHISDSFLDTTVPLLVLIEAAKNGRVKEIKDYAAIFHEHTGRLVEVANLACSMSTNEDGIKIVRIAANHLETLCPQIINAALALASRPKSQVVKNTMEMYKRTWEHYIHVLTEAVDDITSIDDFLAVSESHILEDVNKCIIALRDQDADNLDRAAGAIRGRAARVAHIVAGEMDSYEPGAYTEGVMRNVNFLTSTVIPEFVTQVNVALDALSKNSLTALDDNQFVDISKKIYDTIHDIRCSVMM

[6] = biological target: T5, β-catenin•N-cadherin cytoplasmic tail complex (M. musculus | , UniProt Q02248 1-781; P15116 746-906); test: ITC
T5 sequence (looked up) 1: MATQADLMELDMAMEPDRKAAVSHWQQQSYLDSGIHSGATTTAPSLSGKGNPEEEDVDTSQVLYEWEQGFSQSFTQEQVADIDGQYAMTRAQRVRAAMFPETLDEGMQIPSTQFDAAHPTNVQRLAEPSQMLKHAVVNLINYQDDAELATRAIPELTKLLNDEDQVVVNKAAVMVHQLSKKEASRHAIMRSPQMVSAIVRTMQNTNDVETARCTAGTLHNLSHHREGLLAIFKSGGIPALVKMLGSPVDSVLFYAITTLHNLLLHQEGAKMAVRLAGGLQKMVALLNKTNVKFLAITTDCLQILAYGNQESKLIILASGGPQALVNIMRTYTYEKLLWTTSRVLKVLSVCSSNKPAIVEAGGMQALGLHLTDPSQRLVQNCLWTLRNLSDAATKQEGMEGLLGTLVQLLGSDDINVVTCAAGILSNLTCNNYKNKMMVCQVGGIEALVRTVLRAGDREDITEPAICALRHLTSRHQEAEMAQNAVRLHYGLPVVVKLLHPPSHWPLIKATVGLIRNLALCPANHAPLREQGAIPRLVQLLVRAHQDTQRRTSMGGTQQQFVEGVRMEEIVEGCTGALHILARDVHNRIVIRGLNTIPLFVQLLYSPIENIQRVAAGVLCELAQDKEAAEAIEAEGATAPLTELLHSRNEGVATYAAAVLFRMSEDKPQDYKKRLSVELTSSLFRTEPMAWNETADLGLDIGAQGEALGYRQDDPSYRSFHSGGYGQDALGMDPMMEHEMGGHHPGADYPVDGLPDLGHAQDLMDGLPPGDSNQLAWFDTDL
T5 sequence (looked up) 2: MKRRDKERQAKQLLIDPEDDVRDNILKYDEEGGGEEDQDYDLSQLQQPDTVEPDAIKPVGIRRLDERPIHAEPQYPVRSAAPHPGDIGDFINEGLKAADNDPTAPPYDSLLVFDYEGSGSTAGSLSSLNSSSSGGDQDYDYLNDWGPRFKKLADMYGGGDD

β-catenin = biological target: T6, β-catenin (M. musculus, UniProt Q02248 1-781); test: ITC
T6 sequence (looked up): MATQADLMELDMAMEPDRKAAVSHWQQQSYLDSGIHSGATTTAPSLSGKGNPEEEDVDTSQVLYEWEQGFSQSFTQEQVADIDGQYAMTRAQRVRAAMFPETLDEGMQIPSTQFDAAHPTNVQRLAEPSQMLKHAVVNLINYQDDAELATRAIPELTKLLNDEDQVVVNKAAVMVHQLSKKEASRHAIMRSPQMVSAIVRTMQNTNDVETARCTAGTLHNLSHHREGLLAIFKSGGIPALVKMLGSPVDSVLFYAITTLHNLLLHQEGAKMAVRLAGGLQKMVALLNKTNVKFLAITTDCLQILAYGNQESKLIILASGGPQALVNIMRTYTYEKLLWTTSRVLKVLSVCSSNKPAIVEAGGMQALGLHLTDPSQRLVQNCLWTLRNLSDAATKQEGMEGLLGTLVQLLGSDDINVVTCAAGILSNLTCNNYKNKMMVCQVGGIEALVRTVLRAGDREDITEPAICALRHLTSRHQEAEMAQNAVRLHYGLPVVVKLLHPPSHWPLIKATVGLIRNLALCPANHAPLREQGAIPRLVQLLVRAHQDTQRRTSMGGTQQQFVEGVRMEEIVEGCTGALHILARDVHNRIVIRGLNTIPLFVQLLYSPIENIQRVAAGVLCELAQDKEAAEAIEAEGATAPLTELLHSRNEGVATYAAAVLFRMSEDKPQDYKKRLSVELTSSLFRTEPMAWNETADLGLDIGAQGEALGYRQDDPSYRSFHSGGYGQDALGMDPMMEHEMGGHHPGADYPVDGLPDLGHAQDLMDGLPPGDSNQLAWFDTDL

SEC = biological target: the molecule itself; test: SEC

Kd [1]: 250 nM
Kd [2]: 50 nM
Kd [3]: ~5000 nM
Kd [4]: ~3000 nM
Kd [5]: 50 nM
B1: vinculin D1 (aa1-259) (domain or fragment, UniProt P12003 1-259, looked up)
chain: MPVFHTRTIESILEPVAQQISHLVIMHEEGEVDGKAIPDLTAPVSAVQAAVSNLVRVGKETVQTTEDQILKRDMPPAFIKVENACTKLVRAAQMLQADPYSVPARDYLIDGSRGILSGTSDLLLTFDEAEVRKIIRVCKGILEYLTVAEVVETMEDLVTYTKNLGPGMTKMAKMIDERQQELTHQEHRVMLVNSMNTVKELLPVLISAMKIFVTTKNTKSQGIEEALKNRNFTVEKMSAEINEIIRVLQLTSWDEDAWA

Kd [6]: 7 nM
B4: αT-catenin N1-N2 (aa1-259) (domain or fragment, M. musculus, UniProt Q65CL1 1-259, looked up)
chain: MSAETPITLNMDTQDLQIQTFTVEKLLEPLIIQVTTLVNCPQNPSNRKKGRSKRARVLLASVEEATWNLLDKGEMIAKEATVLKEELAAALQEVRKESKALKVSAERFTDDPCYLPKREAVVQAARALLAAVTRLLVLADMIDVMCLLQHVSSFQRTFESLKNVSNKSDLQRTYQKLGKELESLDYLAFKRQQDLKSPSQRDEIAGARATLKENSPLLHSICSACLEHSDVASLKASKDTVCEEIQNALDVISNASQGI

Further lines, the binder ahead of its results:

Binder: B2
Kd [6]: 5 to 6 nM
Kd (β-catenin): ~250 nM

B3: αT-catenin V94D N1-N2 (domain or fragment, M. musculus, UniProt Q65CL1 1-259, looked up)
chain: MSAETPITLNMDTQDLQIQTFTVEKLLEPLIIQVTTLVNCPQNPSNRKKGRSKRARVLLASVEEATWNLLDKGEMIAKEATVLKEELAAALQEDRKESKALKVSAERFTDDPCYLPKREAVVQAARALLAAVTRLLVLADMIDVMCLLQHVSSFQRTFESLKNVSNKSDLQRTYQKLGKELESLDYLAFKRQQDLKSPSQRDEIAGARATLKENSPLLHSICSACLEHSDVASLKASKDTVCEEIQNALDVISNASQGI
stoichiometry N (SEC): 2
